Source: paper PMC12199398, “Manipulating the Light Systemic Signal HY5 Greatly Improve Fruit Quality in Tomato”

B1: SS7 A-box probe (dsDNA)
DNA 1: GCCCGGTGTCTACGTAAGATTGACAG
DNA 2: CTGTCAATCTTACGTAGACACCGGGC
B2: LIN6 A-box probe (dsDNA)
DNA 1: CGCAATTAAATACGTAAGGGCTTTGA
DNA 2: TCAAAGCCCTTACGTATTTAATTGCG
B3: SS1 ACE probe (dsDNA)
DNA 1: CACCCTTTAGACGTATTACAGTAG
DNA 2: CTACTGTAATACGTCTAAAGGGTG
B4: PDS C/G-box probe (dsDNA)
DNA 1: TGGTGGGACGTGTCAAATT
DNA 2: AATTTGACACGTCCCACCA
B5: PSY1 Z-box probe (dsDNA)
DNA 1: GAAATCTACGTGTCTTAA
DNA 2: TTAAGACACGTAGATTTC
B6: LIN5 ACE probe (dsDNA)
DNA 1: GTAAATTATTACGTCAGGCTTTAT
DNA 2: ATAAAGCCTGACGTAATAATTTAC
B7: VI ACE probe (dsDNA)
DNA 1: AAGAAAAAAAATGACGTTTTTCCCCTTATT
DNA 2: AATAAGGGGAAAAACGTCATTTTTTTTCTT

The binders below were run against T1, HY5 (His-HY5) (Solanum lycopersicum (tomato), UniProt Q9SM50 1-158) (assay: EMSA; LightShift Chemiluminescent EMSA Kit (Thermo 20148); buffer, salt, pH and temperature not stated). Settings: protein: recombinant; tags: His (pET-32a); chain copies: 2; blunt.
T1 sequence: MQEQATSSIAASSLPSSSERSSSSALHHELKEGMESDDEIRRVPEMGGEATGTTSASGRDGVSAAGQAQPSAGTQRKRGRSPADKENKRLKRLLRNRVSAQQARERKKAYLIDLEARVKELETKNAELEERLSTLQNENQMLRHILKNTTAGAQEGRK
B1: binds. B2: binds. B3: binds. B4: binds. B5: binds. B6: binds. B7: binds.
